From patent US20240124586A1 (WUXI BIOLOGICS IRELAND, published 2024)
Where two headings read alike, the source gives them in different places. Values belong to the binder of their own block, whether it stands above or below them.

Experiments:
[1] = biological target: T1, human PD-1 on engineered CHO-S cells (W305-CHO-S.hPro1.C6) (human, UniProt Q15116 25-288); experiment: FACS on human PD-1 engineered cells
T1 construct: whole, on cells; also called human PD-1 engineered cells; PD-1+ cells
Protocol: (§1) Engineered human PD-1 expressing cells W305-CHO-S.hPro1.C6 were seeded at 1×10⁵ cells/well in U-bottom 96-well plates (COSTAR 3799). Antibodies with 3.16-fold titration in 1% BSA DPBS from 200 nM to 0.002 nM were added to the cells. The plates were incubated at 4° C. for 1 hour. After wash, […] 1:125 diluted PE-labeled goat anti-human antibody (Jackson 109-115-098) was added to each well and the plates were incubated at 4° C. for 1 hour. The binding of the antibodies onto the cells was tested by flow cytometry and the mean fluorescence intensity (MFI) was analyzed by FlowJo.

[2] = biological target: T1, human PD-1 on engineered CHO-S cells …; experiment: FACS on human PD-1 engineered cells; remark: listed apart in the source
Protocol: as §1

[3] = biological target: T1, human PD-1 on engineered CHO-S cells …; experiment: FACS competition: antibody titrated against human PD-L1 binding to PD-1; falling curve, half-maximal value labelled EC50 on the sheet
Protocol: (§2) In order to test whether the bispecific antibodies could block hPD-L1 binding to hPD-1 protein, a competitive FACS was conducted. […] Plates were incubated at 4° C. for 1 hour. After wash, the binding of W315-hPro1.ECD.mFc to cell expressive human PD-1 was detected by FITC-labeled goat anti-mouse antibody (abcam 98716 1:125). The competition binding of antibodies to the cells was tested by flow cytometry and the mean fluorescence intensity (MFI) was analyzed by FlowJo.

[4] = biological target: T1, human PD-1 on engineered CHO-S cells …; experiment: as above; remark: listed apart in the source
Protocol: as §2

[5] = biological target: T2, human PD-1 ECD mouse Fc fusion (W305-hPro1.ECD.mFc) (human, UniProt Q15116 25-170); experiment: dual-binding ELISA: human PD-1 ECD coated, antibody titrated, bound antibody detected with biotinylated human CTLA-4 ECD and streptavidin-HRP
T2 construct: extracellular domain; In-house protein; also called hPD-1-ECD; human PD-1 coated on the plate
Protocol: In order to test whether the bispecific antibodies could bind to both hPD-1 and hCTLA-4, an ELISA assay was developed as below. A 96-well ELISA plate (Nunc MaxiSorp, ThermoFisher) was coated overnight at 4° C. with 0.5 μg/ml antigen-1 (hPD-1-ECD, W305-hPro1.ECD.mFc) in carbonate-bicarbonate buffer. After a 1 hour blocking step with 2% (w/v) bovine serum albumin (Pierce) dissolved in PBS, serial dilutions of the different PD-1×CTLA-4 bispecific antibodies in PBS containing 2% BSA PBS were incubated on the plates for 1 hour at room temperature. Following the incubation, plates were washed three times with 300 μL per well of PBS containing 0.5% (v/v) Tween 20. […] After washing the plates three times, Streptavidin-HRP (Lifetechnologies, #SNN1004) (1:20000 diluted) was added and incubated on the plates for 1 hour at room temperature. After washing six times with […] per well of PBS containing 0.5% (v/v) Tween 20, 100 μL tetramethylbenzidine (TMB) substrate was added for the detection per well. The reaction was stopped after approximately 5 minutes through the addition of […] per well of 2 M HCl. The absorbance of the wells was measured at 450 nm with a multiwall plate reader (SpectraMax® M5e).

[6] = biological target: T3, human CD19 on CD19+ B cell lines (Ramos, Raji) (human, UniProt P15391 20-556); experiment: cell-based or functional assay
T3 sequence (looked up): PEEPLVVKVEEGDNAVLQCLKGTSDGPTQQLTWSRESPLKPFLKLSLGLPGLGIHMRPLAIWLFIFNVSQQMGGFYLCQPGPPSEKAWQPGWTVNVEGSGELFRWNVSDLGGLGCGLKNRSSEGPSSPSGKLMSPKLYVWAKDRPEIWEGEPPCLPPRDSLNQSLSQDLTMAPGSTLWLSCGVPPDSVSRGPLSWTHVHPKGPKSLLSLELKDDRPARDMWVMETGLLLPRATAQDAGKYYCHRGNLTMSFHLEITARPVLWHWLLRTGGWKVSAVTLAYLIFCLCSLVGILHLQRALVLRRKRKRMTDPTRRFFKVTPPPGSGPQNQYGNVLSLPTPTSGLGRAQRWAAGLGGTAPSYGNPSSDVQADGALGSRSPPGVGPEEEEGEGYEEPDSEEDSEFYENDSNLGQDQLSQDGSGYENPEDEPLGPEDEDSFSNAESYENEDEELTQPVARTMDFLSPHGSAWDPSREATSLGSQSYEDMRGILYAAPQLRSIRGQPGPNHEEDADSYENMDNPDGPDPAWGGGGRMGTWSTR

[7] = biological target: T3, human CD19 on CD19+ B cell lines …; experiment: flow cytometry on Ramos cells
[8] = biological target: T4, human CD3 on CD3+ Jurkat cells (human, UniProt P07766 23-207; P09693 23-182; P04234 22-171); experiment: flow cytometry on Jurkat cells
T4 construct: whole, on cells; also called CD3 positive Jurkat cells

[9] = biological target: T3, human CD19 on CD19+ B cell lines …; experiment: FACS on CD19+ Ramos cells

T1 sequence (Q15116 25-288, change not shown): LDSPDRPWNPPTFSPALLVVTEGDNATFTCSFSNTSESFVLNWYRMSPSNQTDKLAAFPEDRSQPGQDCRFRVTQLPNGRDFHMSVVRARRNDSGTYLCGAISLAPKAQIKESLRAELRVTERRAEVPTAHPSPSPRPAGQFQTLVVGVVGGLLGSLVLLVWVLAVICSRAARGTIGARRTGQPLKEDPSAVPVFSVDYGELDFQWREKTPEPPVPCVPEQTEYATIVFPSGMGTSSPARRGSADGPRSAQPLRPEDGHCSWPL
T2 sequence (Q15116 25-170): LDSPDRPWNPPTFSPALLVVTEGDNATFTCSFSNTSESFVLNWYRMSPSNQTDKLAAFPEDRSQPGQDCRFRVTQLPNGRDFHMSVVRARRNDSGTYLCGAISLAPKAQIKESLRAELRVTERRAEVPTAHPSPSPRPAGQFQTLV
T4 sequence (P07766 23-207, chain 1 of 3): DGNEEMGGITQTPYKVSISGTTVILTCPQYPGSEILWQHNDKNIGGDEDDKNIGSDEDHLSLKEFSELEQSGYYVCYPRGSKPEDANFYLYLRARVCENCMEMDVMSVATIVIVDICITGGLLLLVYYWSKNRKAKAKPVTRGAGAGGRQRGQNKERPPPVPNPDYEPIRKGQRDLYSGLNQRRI
T4 sequence (P09693 23-182, chain 2 of 3): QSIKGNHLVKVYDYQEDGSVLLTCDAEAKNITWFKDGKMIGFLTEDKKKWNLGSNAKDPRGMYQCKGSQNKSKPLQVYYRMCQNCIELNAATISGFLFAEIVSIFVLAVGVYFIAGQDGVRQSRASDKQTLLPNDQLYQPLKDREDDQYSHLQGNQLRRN
T4 sequence (P04234 22-171, chain 3 of 3): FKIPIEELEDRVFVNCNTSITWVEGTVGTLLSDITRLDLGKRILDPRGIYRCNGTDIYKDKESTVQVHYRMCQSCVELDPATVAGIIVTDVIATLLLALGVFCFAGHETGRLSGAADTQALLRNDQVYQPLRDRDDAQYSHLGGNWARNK

EC50 [1]: 1.81 nM | EC50 [2]: 1.42 nM | IC50 [3]: 1.92 nM | IC50 [4]: 1.67 nM | EC50 [5]: 0.107 nM
B1: U6T1.G25R.IgG4, bispecific anti-PD-1 x CTLA-4 (as listed in Example 15) (bispecific antibody)
heavy: EVQLLESGGGLVQPGGSLRLSCAASGFTFSSHAMSWVRQAPGKGLEWVSTITGGGGSIYYADSVKGRFTISRDNSKNTLYLQMNSLRAEDTAVYYCAKNRAGEGYFDYWGQGTLVTVSSASTKGPSVFPLAPCSRSTSESTAALGCLVKDYFPEPVTVSWNSGALTSGVHTFPAVLQSSGLYSLSSVVTVPSSSLGTKTYTCNVDHKPSNTKVDKRVGGGGSGGGGSQVQLVESGGGVVQPGRSLRLSCAASGFTFSSYTMHWVRQAPGKGLEWVTFISYDGNNKYYADSVKGRFTISRDNSKNTLYLQMNSLRAEDTAIYYCARTGWLGPFDYWGQGTLVTVLEDLKNVFPPEVAVFEPSEAEISHTQKATLVCLATGFYPDHVELSWWVNGKEVHSGVCTDPQPLKEQPALQDSRYALSSRLRVSATFWQNPRNHFRCQVQFYGLSENDEWTQDRAKPVTQIVSAEAWGRYGPPCPPCPAPEFLGGPSVFLFPPKPKDTLMISRTPEVTCVVVDVSQEDPEVQFNWYVDGVEVHNAKTKPREEQFNSTYRVVSVLTVLHQDWLNGKEYKCKVSNKGLPSSIEKTISKAKGQPREPQVYTLPPSQEEMTKNQVSLTCLVKGFYPSDIAVEWESNGQPENNYKTTPPVLDSDGSFFLYSRLTVDKSRWQEGNVFSCSVMHEALHNHYTQKSLSLSLGK
light 1: SYELTQPLSVSVALGQTARITCGGDNIGNKDVHWYQQKPGQAPVLVIYRDSNRPSGIPEGFSGSNSGNTATLTISRAQAGDEADYYCQVWDSIWVFGGGTKLTVLGQPKAAPSVTLFPPSSEELQANKATLVCLISDFYPGAVTVAWKADSSPVKAGVETTTPSKQSNNKYAASSYLSLTPEQWKSHKSYSCQVTHEGSTVEKTVAPTECS
light 2: not shown
notes: kept apart; also called U6T1 in G25R format

EC50 [1]: 1.74 nM | IC50 [3]: 1.87 nM
B2: U6T1.G19R.IgG4, bispecific anti-PD-1 x CTLA-4 (bispecific antibody)
heavy: EVQLLESGGGLVQPGGSLRLSCAASGFTFSSHAMSWVRQAPGKGLEWVSTITGGGGSIYYADSVKGRFTISRDNSKNTLYLQMNSLRAEDTAVYYCAKNRAGEGYFDYWGQGTLVTVLEDLKNVFPPEVAVFEPSEAEISHTQKATLVCLATGFYPDHVELSWWVNGKEVHSGVCTDPQPLKEQPALQDSRYALSSRLRVSATFWQNPRNHFRCQVQFYGLSENDEWTQDRAKPVTQIVSAEAWGRYGPPCPPCPAPEFLGGPSVFLFPPKPKDTLMISRTPEVTCVVVDVSQEDPEVQFNWYVDGVEVHNAKTKPREEQFNSTYRVVSVLTVLHQDWLNGKEYKCKVSNKGLPSSIEKTISKAKGQPREPQVYTLPPSQEEMTKNQVSLTCLVKGFYPSDIAVEWESNGQPENNYKTTPPVLDSDGSFFLYSRLTVDKSRWQEGNVFSCSVMHEALHNHYTQKSLSLSLGGGGGSGGGGSGGGGSGGGGSQVQLVESGGGVVQPGRSLRLSCAASGFTFSSYTMHWVRQAPGKGLEWVTFISYDGNNKYYADSVKGRFTISRDNSKNTLYLQMNSLRAEDTAIYYCARTGWLGPFDYWGQGTLVTVSSASTKGPSVFPLAPCSRSTSESTAALGCLVKDYFPEPVTVSWNSGALTSGVHTFPAVLQSSGLYSLSSVVTVPSSSLGTKTYTCNVDHKPSNTKVDKRV
light 1: SYELTQPLSVSVALGQTARITCGGDNIGNKDVHWYQQKPGQAPVLVIYRDSNRPSGIPEGFSGSNSGNTATLTISRAQAGDEADYYCQVWDSIWVFGGGTKLTVLPDIQNPDPAVYQLRDSKSSDKSVCLFTDFDSQTQVSQSKDSDVYITDKCVLDMRSMDFKSNSAVAWSQKSDFACANAFQNSIIPEDTFFPSPESS
light 2: not shown
notes: Symmetric tetravalent format G19R; also called U6T1 in G19R format

EC50 [1]: 1.65 nM | IC50 [3]: 1.96 nM
B3: U6T1.G25.IgG4, bispecific anti-PD-1 x CTLA-4 (bispecific antibody)
heavy: not shown
light 1: B2 light 1
light 2: not shown
notes: Symmetric tetravalent format G25; also called U6T1 in G25 format

EC50 of cell lysis, CD8+ T cells and Raji cells, 4 hours [6]: 3.2 nM | EC50 [7]: 1.8 nM | EC50 [8]: 19.3 nM | EC50 (read off the curve) [9]: 1 to 2 nM
B4: W3438-T3U4.F16-1.uIgG4.SP, bispecific trivalent anti-CD3 x CD19 (bispecific antibody)
heavy 1: QVQLVQSGAEVKKPGSSVKVSCKASGFAFTDYYIHWVRQAPGQGLEWMGWISPGNVNTKYNENFKGRVTITADKSTSTAYMELSSLRSEDTAVYYCARDGYSLYYFDYWGQGTLVTVLEDLKNVFPPEVAVFEPSEAEISHTQKATLVCLATGFYPDHVELSWWVNGKEVHSGVCTDPQPLKEQPALQDSRYALSSRLRVSATFWQNPRNHFRCQVQFYGLSENDEWTQDRAKPVTQIVSAEAWGRYGPPCPPCPAPEFLGGPSVFLFPPKPKDTLMISRTPEVTCVVVDVSQEDPEVQFNWYVDGVEVHNAKTKPREEQFNSTYRVVSVLTVLHQDWLNGKEYKCKVSNKGLPSSIEKTISKAKGQPREPQVYTLPPCQEEMTKNQVSLWCLVKGFYPSDIAVEWESNGQPENNYKTTPPVLDSDGSFFLYSRLTVDKSRWQEGNVFSCSVMHEALHNHYTQKSLSLSLGK
light 1: DIVMTQSPDSLAVSLGERATINCKSSQSLLNSRTRKNYLAWYQQKPGQPPKLLIYWASTRQSGVPDRFSGSGSGTDFTLTISSLQAEDVAVYYCTQSHTLRTFGGGTKVEIKPDIQNPDPAVYQLRDSKSSDKSVCLFTDFDSQTQVSQSKDSDVYITDKCVLDMRSMDFKSNSAVAWSQKSDFACANAFQNSIIPEDTFFPSPESS
heavy 2: QMQLVQSGPEVKKPGTSVKVSCKASGYAFTSYNMYWVRQARGQRLEWIGYIDPYNGDTTYNQKFKGRVTITRDMSTSTAYMELSSLRSEDTAVYYCLTTAYAMDYWGQGTLVTVSSASTKGPSVFPLAPCSRSTSESTAALGCLVKDYFPEPVTVSWNSGALTSGVHTFPAVLQSSGLYSLSSVVTVPSSSLGTKTYTCNVDHKPSNTKVDKRVGGGGSGGGGSQMQLVQSGPEVKKPGTSVKVSCKASGYAFTSYNMYWVRQARGQRLEWIGYIDPYNGDTTYNQKFKGRVTITRDMSTSTAYMELSSLRSEDTAVYYCLTTAYAMDYWGQGTLVTVSSASTKGPSVFPLAPCSRSTSESTAALGCLVKDYFPEPVTVSWNSGALTSGVHTFPAVLQSSGLYSLSSVVTVPSSSLGTKTYTCNVDHKPSNTKVDKRVESKYGPPCPPCPAPEFLGGPSVFLFPPKPKDTLMISRTPEVTCVVVDVSQEDPEVQFNWYVDGVEVHNAKTKPREEQFNSTYRVVSVLTVLHQDWLNGKEYKCKVSNKGLPSSIEKTISKAKGQPREPQVCTLPPSQEEMTKNQVSLSCAVKGFYPSDIAVEWESNGQPENNYKTTPPVLDSDGSFFLVSRLTVDKSRWQEGNVFSCSVMHEALHNHYTQKSLSLSLGK
light 2: DIQLTQSPSFLSASVGDRVTITCSASSTVNYMHWYQQKPGKAPKLLIYSTSNLASGVPSRFSGSGSGTEFTLTISSLQPEDFATYYCHQWSSYPYTFGQGTKLEIKRTVAAPSVFIFPPSDEQLKSGTASVVCLLNNFYPREAKVQWKVDNALQSGNSQESVTEQDSKDSTYSLSSTLTLSKADYEKHKVYACEVTHQGLSSPVTKSFNRGEC
notes: also called F16-Design_2-QQQQ (IgG4)
EC50 of T-cell engaged malignant B cell killing [6]: 0.0055 nM
